System: Leishmania donovani promastigotes
Assay: Intracellular uptake by confocal fluorescence microscopy
Type: cell-based
Details: L. donovani promastigotes strain MHOM/SD/00/1S-2D, 2 × 10^7 cells/mL in HBSS-Glc; 9 μM conjugate, 4 h, 26°C; washed, DAPI 5 μg/mL, unfixed; confocal fluorescence λex 488 nm/λem 520 nm; representative of two other independent experiments
Protocol: Leishmania donovani promastigotes (strain MHOM/SD/00/1S-2D) were resuspended in Hanks' medium supplemented with 10 mM D-glucose (HBSS-Glc) at 2 × 10^7 cells/mL. Afterwards, 9 μM Bodi Fluor 488-labeled PMM-Tat conjugate 6 was added to the parasite suspension and incubated for 4 h in HBSS-Glc. After incubation, non-incorporated 6 was removed by washing the cells with HBSS-Glc. Finally, cells were labeled with DAPI (5 μg/mL, 20 min) before their observation, unfixed, in a Leica TCS–SP2 ABOS confocal laser scanning microscope.
Figure 3 Fluorescence of Leishmania donovani promastigotes incubated with Bodi Fluor 488-labeled PMM-Tat conjugate (9 μM, 4 h, 26°C) and stained with DAPI (5 μg/mL) immediately before observation, unfixed. Settings: conjugate (green, λex = 488 nm/λem = 520 nm); DAPI (blue, λex = 350 nm/λem = 460 nm). Bar = 20 μm. Experiment is representative of two other ones performed independently.
4. Parasite culture and confocal microscopy
Leishmania donovani promastigotes (strain MHOM/SD/00/1S-2D) were resuspended in Hanks’ medium supplemented with 10 mM D-glucose (HBSS-Glc) at 2 × 10^7 cells/mL.
Afterwards, 9 µM BodiFluor™ 488-labeled PMM-Tat conjugate was added to the parasite suspension and incubated for 4 h in HBSS-Glc. After incubation, non-incorporated conjugate was removed by washing the cells with HBSS-Glc. […]

Bodi Fluor-O2Oc-Tat(48-60)-O2Oc-Asp(paromomycin)-amide [compound 6]
intracellular uptake (internalization and cellular pattern): can enter the parasite, with a diffuse pattern in all the cytoplasm
